Source: the nanobody polyreactivity screen of Harvey et al. (2022)

Assay: yeast display, Sf9 membrane polyspecificity reagent, FACS + sequencing; frameworks hold sequencing errors
In short: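 A nanobody's polyreactivity label depends on the gate it was sorted from. Yeast display cells were stained with 10% biotinylated, detergent-solubilized Sf9 membrane reagent for 1 hour at 4 °C, enriched on streptavidin microbeads and sorted by FACS. The low and high (top ~1%) gates were set on anti-HA fluorescence for expression and streptavidin fluorescence for reagent binding.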

| Sequence | polyreactivity (PSR sort gate) |
| --- | --- |
| QVQLVESGGGLVQAGGSLRLSCAASGRTFKYYAMGWYRQAPGKERELVAAISSGSSTYYADSVKGRFTISRDNAKNTVYLQMNSLKPEDTAVYYCNAVYKLSYLLSGTSEYYTYDYWGQGTQVTVSS | high polyreactivity |
| QVQLVESGGGLVQAGGSLRLSCAASGFIFTSNAMGWYRQAPGKERELVAAITKSGGSTYYADSVKGRFTISRDNAKNTVYLQMNSLKPEDTAVYYCATRGVRRYYKTMNYWGQGTQVTVSS | high polyreactivity |
| QVQLVESGGGLVQAGGSLRLRCAASGRIFVPYVMGWYRQAPGKERELVASISDSDTSTYYADSVKGRFTISRDNAKNTVYLQMNSLKPEDTAVYYCNVDYWGQGTQVTVSS | low polyreactivity |
| QVQLVESGGGLVQAGGSLRLSCAASGLIFHNNAMGWYRQAPGKERELVARITRSCGSTYYADSVKGRFTISRDNAKNTFYLQMNSLKPEDTAVYYCATDALFDSGGMDYWGQGTQVTVSS | low polyreactivity |
| QVQLVESGGGLVQAGGSLRLSCAASGSTFSPYAMGWYRQAPGKEREIVAAISWGDGSTYYADSVKGRFTISRDNAKNTVYLQINSLKPEDTAVYYCNVKPSARGAPLYDYWGQGTQVTVSS | high polyreactivity |
| QVQFVESGGGLVQAGGSLRLSCAASGFTFVWYDMGGYRQAPGKERELVAAISSGGSTYYADSVKGRFTISRDNAKNTVYLQMNSLKPEDTAVYYCAVYTGYYNYIYQYDYWGQGTQVTVSS | low polyreactivity |
| QVQLVESGGGLVQAGGSLRLSFAASGNIFVYYAMGWYRQAPGKVRELVAAISFRGGTTYYADSVKGRFTISRDNAKNTVYLQMNSLKPEDTAVYYCAARTMPRVSRKTFGYWGQGTQVTVSS | low polyreactivity |
| QVQLVESGGGLVQAGGSLRLSCAASGFNFASNAMGWYRQAPGKERELVAAITKSGGRTYYADSVKGRFTISRDNAMNTVYLQMNSLKPEDTAVYYCAAKVRVVHRPYDHWGQGTQVTVSS | high polyreactivity |
| QDQLVESGGGLVQAGGSLRLICAASGMGWFRQAPGKEREFVAVIRWSSGSTYYADSVKGRFTISRDNAKNTVYLQMNSLKPEDTAVYYCAAGGYPSLLHDYDYWGQGTQVTVSS | low polyreactivity |
| QVQLVESGGGLVQAGGSLRLSCAASGRIFYRYAMGWYRQAPGKERELVAVISGGGTYYADSVKGRFTISRDNAKNTVYLQMNSLKPEDTAVYYCAADDGVSLVSPYYGGYDYWGQGTQVTVSS | low polyreactivity |
| QVQLVESGGGLVQAGGSLRLSCAASGFTFRRNTMGWYRQEPGKERELVAAITQRGGSTYYADSVKGRFTISRDNAKNTVYLQMNSLKPEDTAVYYCAVDRHSYIYKYDYWGQGTQVTVSS | high polyreactivity |
| QVQLVESGGALVQAGGSLRLSCAASGSIFSEYAMGWYRQAPGKERELVAAISRSGGTTYYADSVKGRFTISRDNAKNTVYLQMNSLKPEDTAVYYCAARYFRGSYPMGYWGQGTQVTVSS | high polyreactivity |
| QVQLVESGVGLVQAGGSLRLSCAASGITFNVNAMGWYRQAPGKERELVARITTSGGSTSYADSVKGRFTISRDNAKNTVYLQMNSLKPEDTAVYYCAADRARYYSEYDYWGQGTQVTVSS | low polyreactivity |
| QVQLVESGGGLVQAGGSLRLSCAASGRTYQDNAMGWYRQEPGTERELVAAISFNSDSTYYADSVKGRFTISRDNAKNTVYLQMNSLKPEDTAVYYCAAQVVPTLYLRPLDYWGQGTQVTVSS | low polyreactivity |
| QDQLVESGGGLVQPGGSLRLSCAASGRTFRFNAMGWYRQAPGKERELVAVITSNDGSTYYADSVKGRFTISRDNAKNTVYLQMNSLKPEDTAVYYCAADWSYAWSWFYYWGQGTQVTVSS | low polyreactivity |
| QVQLVESGGGLVQAGGSLRLSCAASGRIFEDYAMGWYRQAPGKERELVARISSGDSTNYADSVKGRFTISRDNAKNTVYLQMNSLKPEDTAVYYCNADRGDLYELRGSGYLDGYWGQGTQVTVSS | low polyreactivity |

| Sequence | polyreactivity (PSR sort gate) |
| --- | --- |
| QVQLVESGGGLVQAGGSLRLSCAASGLIFYTYAMGWYRQAPGKERELVADINRSDGSTYYADSVKGRFTISRDNAKNTVYLQMNRLKPEDTAVYYCAVVGPYYSRFGGRYYYWGQGTQVTVSS | low polyreactivity |
| QVQLVESGGGLVQAGGSLRLSCAASGRIFNRYAMGWYRQAPGKERELVAAINSSGGSTYYADSVKGRFTISRDNAKNTVYLQMNSLKPEDTAVYYCARVSYHYRTYDYWGQGTQVTVSS | high polyreactivity |
| QVQLVESGGGLVQAGGSLRLSCAASGLIFSYYAMGWYRQAPGKERELVGAITGSGGSTYYADSVKGRFTISRDNAKNTVYLQMNSLKPEDTAVYYCAAGRYAYTLSRKYDYWGQGTQVTVSS | high polyreactivity |
| QVQLVESGGGLVQAGGSLRLSCAASGFTFDVYALGWYRQAPGKERELVAAISARGGSTCYADSVKGRFTISRDNAKNTVYLQMHSLKPEDTAVYYCNTYPKKKRPNEYDYWGQGTQVTVSS | high polyreactivity |
| QVQLVESGGGLVQAGGSLRLSCAASGRTFVYNAMGWYRQAPGKERELVAAISFGGGNTYYADSVKGRFTISRDNAKNTVYLQMNSLKPEDTAVYYCAKAYIGYWGASWYYAYDYWGQGTQVTVSS | low polyreactivity |
| QVQLVESGGGLVQAGGSLRLSCAASGSIFVYNAMGWYRQAPGKEREFVAAITKRVGRTYYADSVKGRFTISRDNAKNTVYLQMNSLKPEDTAVYYCAAVLSYTGGFDYWGQGTQVTVSS | high polyreactivity |
| QVQLVESGGGLVQAGGRLRLSCAATGRTFGRNAMGWYRQAPGKERELVAAINGNGGRTYYADSVKGRFTISRDNAKNTVYLQMNSLKPEDTAVYYCAADLRRSDYDYWGQGTKVTVSS | high polyreactivity |
| QVQLVESGGGLVQAGGSLRLSCSASGSTFFIYAMGWYRQAPWKERELVAAIRSGGTYYADSVKGRFTISRDNAKITVYLQMKSLKPEDTAVYYCAARTRGFRYYYWGQGTQVTVSS | high polyreactivity |
| QVQLVESGGGLVQAGGSLRLTCAPSGFIFTPNAIGWYRQAPGKERELVAAISRGGGSTYYADSVKGRFTISRDNAKNTVYLQMNSLKPQDTAVYYCNARSKNGGTTFGYWGEGTQVTVSS | high polyreactivity |
| QVQLVESVGGLVQAGGSLRLSCAASGSIFAGYAMGWYRQAPGKERELVAAISRRGGRTYYADSVKGRFTISRDIAKNTVYLQMNSLKPEVTAVYYCNRDYRRSTGSPEYDYWGQGTQVTVSS | high polyreactivity |
| QVQLVESGGGLVQAGGSLRLSCAASGSTFFIYAMGWYRQAPGKERELVAAISKSGGTTYYADSVKGRFTISRDNAKNTVYLQMNSLKPEDTAVYYCAAYYTKGVARRQFYYWGQGTQVTVSS | high polyreactivity |
| QVQLVESGGGLVQAGGSLRLSCAASGSIFYVYAMGWYRQAPGKERELVAAISSSAGSTYYADSVKGRFTISRDNAKNTVYLQMNSLKPEDTAVYYCAAKVRYSLRKYYYWGQGTQVTVSS | high polyreactivity |
| QVQLVESGGGLDQAGGSLRLSCAASGIIFYVNDMGWYRQAPGKERELVADISGGTSTNYADSVKGRFTISRDNAKNTVYLQMNSLKPEDTAVYYCATAFIVPFPGSDYCGQGTQVTVSS | low polyreactivity |
| QVQLVESVGGLVHAGGSLRLSCAASGRTFGYNAMGWYRQATGKERELVAAISFRGGTTYYADSVKGRFTISRDNAKITVYLQMNCLIPEDPSVYYCAARYYYRYTGGRLDYWGQGTQVTVSS | high polyreactivity |
| QVQLVESGGGLVQAGGSLRLSCAASGRIFSYFAMGWYRQAPGKEWELVAASSGNGGSTYYADSVKGRFTISRDNAKNTVYLHMNSLKPEDTAVYYCAADWRSSDWAYLYPYSYDDWGQGTQVTVSS | low polyreactivity |
| QVQLVESGGGLVQAGGSLRLSCAASGLTFRPNAMGWYRQAPGKERELVAAISWSGRTYYADSVKGRFTISRDNAKNTVYLQMNILKPEDTAVYYCAARGYSDRYGYWGQGTQVTVSS | high polyreactivity |
